# The nanobody polyreactivity screen of Harvey et al. (2022)
# Assay: yeast display, Sf9 membrane polyspecificity reagent, FACS + sequencing; frameworks hold sequencing errors
# Outline: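 Sorting gates, low and high (top ~1%), were placed on anti-HA fluorescence to track expression and on streptavidin fluorescence to track reagent binding. A clone's polyreactivity label is taken from the gate it came out of. The reagent was 10% biotinylated, detergent-solubilized Sf9 membrane, applied for 1 hour at 4 °C to galactose-induced yeast display cells.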
row,Sequence,polyreactivity (PSR sort gate)
1,QVQLVESGAGIVQAGGSLRLSCAASGSTFYSYTMGWYRQAPGKERELVAAITSTGGRTYYADSVKGRFTISRDNAKITVYLQMNSLKPEDTAVYYCRRPYLYGMYYWGQGTQVTVSS,high polyreactivity
2,QVQLVESGAGLDQAGCSLRISCAASGRIFWFYTMGWYRQAPWKERELVAAISTSGGSTYYADSVKGRFTISRDNEKNTVYLQMNSLKPDDTAVYYCAAQNGYYPQHDYWGQGTQVTVSS,high polyreactivity
3,QVQLVESGAGLDQAGGSLRLSSAASGNTFQYYAMGSYRQAAGKERELVASISYRGGRTYYADSVKGRFTISRDNAKYTVYLQMNSLKPADTAVYYCAKSKYTNVLYNYWGQGTQVTVSS,high polyreactivity
4,QVQLVESGAGLFQAGGSLRLSCAASGFTFNYYAMGGYIHAPGKERELVAAISRRGGSTYYADSVKGRFTISRDNAKNNVYLQMKSLKPEDTAVYYCNAASLKFTSPVRFGYWGQGTQVTVSS,high polyreactivity
5,QVQLVESGAGLFQAGGSLRLSCAASGFTFWWYAMGWYRQAPGKQRELVASISSGGSTNYADSVKGRFTISRDNANNTVYLQMNSLKQVDTAVFYCARRMLYSERYSARWQYVYWGQGTQVNVSS,high polyreactivity
6,QVQLVESGAGLFQAGGSLRLSCAASGSTFVSYAMGWYRQAPGKEREFVAAITWSGGSTYYADSVKGRFTISRDNAKNTVYLQMNSLKPEDTAVYYCARPYRGSPRYYYWGQGTQVTVSS,high polyreactivity
7,QVQLVESGAGLLQAGGSLRISCAASGLTFKIIAMGWYRQAPGKERELVAAISSGTSTNYADSVKGRFTISRDNAKITVYLQMNSLKPEDTAVYYCAARGFWGVAYRYYYWGQGTQVTLSS,high polyreactivity
8,QVQLVESGAGLVQAGGILRLSCAASGRTFKVYAMGWDRQAPGKERELVAAISDRGGSTYDADSVKGRFTISRDYAKNTVYLQMNSLKPVDTAVYYCSAEYARSTWRAFPELDYWGQGTQVTVSS,low polyreactivity
9,QVQLVESGAGLVQAGGRLRLSCAASGRIFDGYAMGWYRQAPGKERELVAAITASGGSTYYADSVKGRFTISRDNAKITVYLQMNSLKPEDTAVYYCAVDYSYWVEYWGQGTQVTVSS,high polyreactivity
10,QVQLVESGAGLVQAGGRLRLSCGASGRIFGRNAMGLYRQGPGKERELVAAISYSGGSTYYADSVKGRFTISRDNAKNTVYLQMNSLKPEDTAVYYCAARYTRSGYYWGQGTQVTVSS,high polyreactivity
11,QVQLVESGAGLVQAGGSHRLSCAASGRNFYWNARGWYRQAPGKEREFVAAISWSGGSTYADSVKGRFTISRDNAKNTVYLQMNSLKPEDTAVYYCAIRVSRSFRAYDYWGQGTQVTVSS,high polyreactivity
12,QVQLVESGAGLVQAGGSILLICAASGLTFYKNAMGWYRQAPAKERELVAVISSSGGSTYYADSVKGRFTISRDNAKNTVYLQMNSLKPEDTAVYYCARDLFTEYRWGLLTYDYWGQGTQVTVSS,low polyreactivity
13,QVQLVESGAGLVQAGGSLRLSCAANTKGSYRQAPGKETELVAAINTGSSTYYADSVKGRFTISRDNAKNTVYLQMNSLKPEDTSVYYCNASYPQYLEYRTRQYNYWVQGTQVTVSS,low polyreactivity
14,QVQLVESGAGLVQAGGSLRLSCAASGFIFARYAMGWSRQAPGKERELVAAITRGGGSTYYADSVKGRFTISRDTAKNTVYLQMNSLKPEDTAVYYCAAENGALVTYGYWGQGTQVTVSS,high polyreactivity
15,QVQLVESGAGLVQAGGSLRLSCAASGFSFQSYTMGWSRQAPGKERELVAAISRSGGRTYYADSVKGRFTISRDNAKNTVYLQMTSLKPEDTAVYYCAVDYRTRVDYWGQGTQLTVSS,high polyreactivity
16,QVQLVESGAGLVQAGGSLRLSCAASGFTFAKYAMGWYRQAPGKERELVATIRRSDDNTYYADSVKGRFTISRDNAKNTVYLQMNSLKPEDTAVYYCATGYYALYSRKPYKYNYWGQGTQVTVSS,high polyreactivity
17,QVQLVESGAGLVQAGGSLRLSCAASGFTFQNYAMGWYRQAPGKERELVAAIDSRGGRTYYADSVKGRFTISRDNAKNSVYLQMNSLKPEDTAVYYCAVAENKRFGSVGYYYWGQGTQVTVSS,low polyreactivity
